The series concerns the molecule itself. As to the kind of experiment: crystal structure; crystals from 18% (w/v) PEG 3350, 10 mM magnesium chloride, 50 mM Tris-HCl pH 8.5; space group I2, two protomers per a.u. related by a dyad; data at 100 K, 2.10 Å.

B1: ImmR transcriptional regulator DNA-binding domain (Bacillus subtilis ICEBs1) (domain or fragment, Bacillus subtilis strain 168, UniProt P96631 1-64, looked up)
chain: MSLGKRLKEARQKAGYTQKEAAEKLNIGNNNLSNYERDYRDPDTDTLLKLSNLYNVSTDYLLGK
notes: ImmR, HTH-type transcriptional regulator of ICEBs1, Bacillus subtilis strain 168, 127 residues; the final model comprises M1-K64 of molecules A and B, each with an N-terminal alanine (A0) left from the purification tag; Full-length ImmR (1-127) was set up for crystallisation; The authors suppose that a trypsin-like contaminant cut it after K64, because there is no density beyond K64 and the …
Regarding B1, the binding result is recorded as “binds”.

The values are drawn from article PMC8960796, “Crystal structure report of the ImmR transcriptional regulator DNA-binding domain of the Bacillus subtilis ICEBs1 transposon” (Scientific Reports, 2022).
